The chains are these.
B1: Pistol ribozyme (parent)
chain: GGGUCGUUGUUCCAUAAUCGCGUGGAUAUGGCACGCAAGUUUCUACCGGGCACCGUAAAUGUCCGACUGGAGCCGUUCGGGCGGCUAUAAACAGACCUCAGGCCCGAAGCGUGGCGGCACCUGCCGCCGGUGGUAAAAAAGAUCGGAAGAGCACACGUCU

This series covers variants of B1. The series can be described thus: aptazyme ON/OFF ratio, guanine; higher = stronger switching; co-transcriptional cleavage with and without guanine.
Take U7A U8G G9A U10G U11A C12A C13A: the “aptazyme ON/OFF ratio” value came to 1.19.

In the case of U7A U8G G9A U10G U11A C12A C13U, the “aptazyme ON/OFF ratio” value came out at 1.11.

For U7A U8G G9A U10G U11A C12A C13G, the “aptazyme ON/OFF ratio” value worked out at 1.41.

Consider U7A U8G G9C U10A U11A C12U C13U, for which the “aptazyme ON/OFF ratio” value was found to be 1.57.

For the variant U7A U8G G9C U10A U11A C12U C13A, the “aptazyme ON/OFF ratio” value was 1.42.

Consider U7A U8G G9C U10A U11A C12U C13G, for which the “aptazyme ON/OFF ratio” value was found to be 1.34.

Turning to U7A U8G G9A U10C U11G C12A C13U, the “aptazyme ON/OFF ratio” value came to 1.28.

With U7A U8G G9A U10C U11G C12A C13A, the “aptazyme ON/OFF ratio” value was 1.18.

Take U7A U8G G9A U10C U11G C12A C13G: the “aptazyme ON/OFF ratio” value stood at 1.19.

Regarding U7A U8G G9C U10C U11C C12G C13G, the “aptazyme ON/OFF ratio” value worked out at 1.08.

In the case of U7A U8G G9C U10C U11C C12G C13A, the “aptazyme ON/OFF ratio” value came out at 1.29.

Regarding U7A U8G G9C U10C U11C C12G C13U, the “aptazyme ON/OFF ratio” value came to 1.07.

Turning to U7A U8G G9A U10G U11G C12A C13U, the “aptazyme ON/OFF ratio” value was determined as 1.5.

U7A U8G G9A U10G U11G C12A C13A: the “aptazyme ON/OFF ratio” value amounted to 1.65.

In the case of U7A U8G G9A U10G U11G C12A C13G, the “aptazyme ON/OFF ratio” value stood at 1.34.

With U7A U8G G9A U11A C12U, the “aptazyme ON/OFF ratio” value was 1.38.

In the case of U7A U8G G9A U11A C12A, the “aptazyme ON/OFF ratio” value worked out at 1.56.

For the variant U7A U8G G9A U11A C12G, the “aptazyme ON/OFF ratio” value stood at 1.37.

As to U7A U8G G9C U10G C12G C13A, the “aptazyme ON/OFF ratio” value stood at 1.3.

As for U7A U8G G9C U10G C12G C13U, the “aptazyme ON/OFF ratio” value was 1.44.

Regarding U7A U8G G9C U10G C12G C13G, the “aptazyme ON/OFF ratio” value is 1.17.

With U7A U8G G9A U10C U11C C13A, the “aptazyme ON/OFF ratio” value is 1.07.

For U7A U8G G9A U10C U11C C13G, the “aptazyme ON/OFF ratio” value was determined as 1.03.

Consider U7A U8G G9A U10C U11C C13U, for which the “aptazyme ON/OFF ratio” value is 1.03.

As for U7A U8G G9A U10C U11A C12G C13G, the “aptazyme ON/OFF ratio” value turned out to be 1.13.

Turning to U7A U8G G9A U10C U11A C12G C13U, the “aptazyme ON/OFF ratio” value was found to be 1.22.

On to U7A U8G G9A U10C U11A C12G C13A, for which the “aptazyme ON/OFF ratio” value worked out at 1.04.

Regarding U7A U8G G9A U10G U11G C12U C13G, the “aptazyme ON/OFF ratio” value was found to be 1.

Regarding U7A U8G G9A U10G U11G C12U C13A, the “aptazyme ON/OFF ratio” value turned out to be 1.33.

On to U7A U8G G9A U10G U11G C12U C13U, for which the “aptazyme ON/OFF ratio” value was 1.22.

On to U7A U8G G9A U11C C12U, for which the “aptazyme ON/OFF ratio” value is 1.39.

In the case of U7A U8G G9A U11C C12A, the “aptazyme ON/OFF ratio” value was 1.46.

In the case of U7A U8G G9A U11C C12G, the “aptazyme ON/OFF ratio” value is 1.56.

Turning to U7A U8G G9C U10G U11A, the “aptazyme ON/OFF ratio” value was determined as 1.07.

As for U7A U8G G9C U10A C12U, the “aptazyme ON/OFF ratio” value stood at 1.36.

For U7A U8G G9C U10A C12A, the “aptazyme ON/OFF ratio” value is 1.4.

With U7A U8G G9C U10A C12G, the “aptazyme ON/OFF ratio” value was found to be 1.43.

Consider U7A U8G G9A U10G U11G C13A, for which the “aptazyme ON/OFF ratio” value was 1.06.

As for U7A U8G G9A U10G U11G C13U, the “aptazyme ON/OFF ratio” value was found to be 1.22.

In the case of U7A U8G G9A U10G U11G C13G, the “aptazyme ON/OFF ratio” value worked out at 1.42.

As for U7A U8G G9A U10G U11A C13U, the “aptazyme ON/OFF ratio” value was 1.03.

As to U7A U8G G9A U10G U11A C13G, the “aptazyme ON/OFF ratio” value came out at 1.16.

U7A U8G G9A U10G U11A C13A: the “aptazyme ON/OFF ratio” value came out at 1.11.

For U7A U8G G9C U10G C12A C13G, the “aptazyme ON/OFF ratio” value turned out to be 1.1.

Consider U7A U8G G9C U10G C12A C13A, for which the “aptazyme ON/OFF ratio” value came out at 1.31.

For U7A U8G G9C U10G C12A C13U, the “aptazyme ON/OFF ratio” value is 1.56.

For U7A U8G G9A U11G C12G C13G, the “aptazyme ON/OFF ratio” value came to 1.08.

Regarding U7A U8G G9A U11G C12G C13U, the “aptazyme ON/OFF ratio” value is 1.52.

Turning to U7A U8G G9A U11G C12G C13A, the “aptazyme ON/OFF ratio” value came to 1.1.

With U7A U8G G9A U10C U11G C12G C13A, the “aptazyme ON/OFF ratio” value amounted to 1.22.

Turning to U7A U8G G9A U10C U11G C12G C13U, the “aptazyme ON/OFF ratio” value stood at 1.1.

Regarding U7A U8G G9A U10C U11G C12G C13G, the “aptazyme ON/OFF ratio” value turned out to be 1.16.

As to U7A U8G G9A U10G U11A C12G C13G, the “aptazyme ON/OFF ratio” value is 1.11.

As to U7A U8G G9A U10G U11A C12G C13U, the “aptazyme ON/OFF ratio” value was 1.22.

In the case of U7A U8G G9A U10G U11A C12G C13A, the “aptazyme ON/OFF ratio” value was 1.15.

In the case of U7A U8G G9C U10C U11C, the “aptazyme ON/OFF ratio” value is 0.976.

Consider U7A U8G G9C U10C U11A, for which the “aptazyme ON/OFF ratio” value turned out to be 1.03.

U7A U8G G9C U10C U11G: the “aptazyme ON/OFF ratio” value came out at 1.26.

As to U7A U8G G9A U10G U11G C12U, the “aptazyme ON/OFF ratio” value turned out to be 1.32.

Turning to U7A U8G G9A U10G U11G C12G, the “aptazyme ON/OFF ratio” value came to 1.24.

Turning to U7A U8G G9A U10G U11G C12A, the “aptazyme ON/OFF ratio” value amounted to 1.46.

Take U7A U8G G9A U11G C12U C13A: the “aptazyme ON/OFF ratio” value was determined as 1.12.

In the case of U7A U8G G9A U11G C12U C13U, the “aptazyme ON/OFF ratio” value was 1.5.

Regarding U7A U8G G9A U11G C12U C13G, the “aptazyme ON/OFF ratio” value turned out to be 1.44.

Regarding U7A U8G G9A U10G C13G, the “aptazyme ON/OFF ratio” value was 1.09.

Take U7A U8G G9A U10G C13U: the “aptazyme ON/OFF ratio” value is 1.31.

U7A U8G G9A U10G C13A: the “aptazyme ON/OFF ratio” value was 1.18.

Take U7A U8G G9A U10G U11C C12G: the “aptazyme ON/OFF ratio” value turned out to be 1.38.

As for U7A U8G G9A U10G U11C C12U, the “aptazyme ON/OFF ratio” value was determined as 1.16.

As for U7A U8G G9A U10G U11C C12A, the “aptazyme ON/OFF ratio” value worked out at 1.45.

Take U7A U8G G9C U10A C12G C13A: the “aptazyme ON/OFF ratio” value is 1.25.

On to U7A U8G G9C U10A C12G C13G, for which the “aptazyme ON/OFF ratio” value was determined as 1.28.

Consider U7A U8G G9C U10A C12G C13U, for which the “aptazyme ON/OFF ratio” value was determined as 1.28.

With U7A U8G G9A U11G C12A C13U, the “aptazyme ON/OFF ratio” value stood at 1.07.

Regarding U7A U8G G9A U11G C12A C13A, the “aptazyme ON/OFF ratio” value was found to be 1.16.

Regarding U7A U8G G9A U11G C12A C13G, the “aptazyme ON/OFF ratio” value worked out at 1.39.

For U7A U8G G9C U10C C12U C13U, the “aptazyme ON/OFF ratio” value was 1.38.

For U7A U8G G9C U10C C12U C13G, the “aptazyme ON/OFF ratio” value is 1.17.

Take U7A U8G G9C U10C C12U C13A: the “aptazyme ON/OFF ratio” value stood at 1.14.

Regarding U7A U8G G9A U10C U11C C12U C13G, the “aptazyme ON/OFF ratio” value came out at 1.08.

Take U7A U8G G9A U10C U11C C12U C13U: the “aptazyme ON/OFF ratio” value worked out at 1.07.

Turning to U7A U8G G9A U10C U11C C12U C13A, the “aptazyme ON/OFF ratio” value was 1.06.

Turning to U7A U8G G9A U10G U11G C12G C13A, the “aptazyme ON/OFF ratio” value turned out to be 0.971.

(Values after the RNAGym collection of RNA variant scans (doi:10.1021/acssynbio.7b00057).)
